Measurements published in the nanobody polyreactivity screen of Harvey et al. (2022).

Assay: yeast display, Sf9 membrane polyspecificity reagent, FACS + sequencing; frameworks hold sequencing errors
How it was run: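 After 36–48 hours of galactose induction, yeast (Saccharomyces cerevisiae BJ5465) displaying a synthetic nanobody library were stained at 4 °C for 1 hour with 10% biotinylated, detergent-solubilized Sf9 membrane reagent. Streptavidin microbeads enriched the stained cells before FACS sorting into low and high (top ~1%) gates on anti-HA and streptavidin fluorescence. Each clone's polyreactivity label reflects its gate of origin.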

Sequence | polyreactivity (PSR sort gate)
QVQLLESGGGLVQAGGSLRLSCAASGRIFYRYAMGWYRKAPGKERELVPAISRTGSRTYYADSVKGRFTISRDNAKNTVYLQMNSLKPEDTAVYYCNKVSAPAEFRSRGYWGQGTQVTVSS | high polyreactivity
QVQLLESGGGLVQAGGSLRLSCAASGRTFDWNMGWYRQAPGKERELVAGITFSVDSTYYADSVKGRFTISRDNAKNTVYLQMNSLKPEDTAYWGQGTQVSVSS | low polyreactivity
QVQLLESGGGLVQAGGSLRLSCAASGRTFRSYVMVWYRQAPGKERELVAAISRSGGSTYYADSVKGRFTISRDNAKNTVYLQMNSLKPEDTAVYYCATKRVLTGYDSWGQGTQVTVSS | high polyreactivity
QVQLLESGGGLVQAGGSLRLSCAASGSIFAYYAMGWYRQAPGKERELVAAISGTGGSTNYADSVKGRFTISRDNAKNTVYLQMNSLKPEDTAVYYCAKDYSFQWRNEFNLAGEYVYWGQGTQVTVSS | low polyreactivity
QVQLLESGGGLVQAGGSLRLSCAASGSIFRGNAMGWYRQAPGKERELVAAISQRGTSTYYADSVKGRFTISRDYAKNTVYLQMNSLKPEDTAVYYCNALYWQIGDDYWGQGTQVTVSS | high polyreactivity
QVQLLESGGGLVQAGGSLRLSCAASGSTFDDYAMGWYRQAPGKEREFVAAIDWSGGSTYYADSVKGRFTISRDNAKYSVYLQMKSLKPEVTAVYYCNADPDVSFDYWGQGTQVTVSS | low polyreactivity
QVQLLESGGGLVQAGGSLRLSCAASGSTFEANTMGWYSQAPGKDRELVASISSSGGSTNYADSVKGRFTISRDNAKNTVYLQMNRLKQEDTAVYYCAVRCTYARWNWRTADSSRDYWGQGTQVTVSS | low polyreactivity
QVQLLESGGGLVQAGGSLRLSCAASGSTFPWYTMGWYRQAPGKERELVAPISNGGSTNYADSVKGRFTISRDNAKNTVYLQMNSLIPEDTAVYYCNARIPPYRWYQVSRGHGYWGQGTQVTVSS | high polyreactivity
QVQLLESGGGLVQAGGSLRLSCAASGSTLNVYGMGWYRQAPGQERELVAAINRDGITYADSVKGRCTISRDNAKNTVYLQMNSLKPEDTAVYYCAGDPYDNSVPGWRRNMDYWGQGTQVTVSS | low polyreactivity
QVQLLESGGGLVQAGGSLRLSCAASGWYRQAPGKERELVAAITYSGGSTYYADSVKGRFTISRDNAKNTVYLQMNSLKPEDTAVYYCAVATGLLYKSHGYWGQGTQVTVSS | low polyreactivity
QVQLLESGGGLVQAGGSLRLSCAASGYIILRNAMGWYRQAPGKERELVAAIRRTGGSTYYADSLKGRFTISRDNAKNTVYLLLNSLKPEDTAVYSCAKRSYTGFEYWGQGTQVTVSS | low polyreactivity
QVQLLESGGGLVQAGGSLRLSCAATGRIFAPYTMGWYRQAPGTEMEMFAVISKRGGNTYYADSVKGRFTISRDNAKNTVYLQMNSLKPEATAVYFCNADWQFRVYLGGPGTHGYDYWGQGTQVTVSS | low polyreactivity
QVQLLESGGGLVQAGGSLRLSCAPSGRTLVHYGMGWYRHAPGKERELVAAISYSGGRTYYADSVKGRVTISRDNAKNTVYLQMNSLKPEDTAVYYCAKDFGSYQRRYGYWGQGTQVTVSS | high polyreactivity
QVQLLESGGGLVQAGGSLRLSCMASGSILGDRMSWYLQPPGKEHELVATIYDGGITYYADSMKGRFTISRDNAKNTVYLQMNSLRPEDTAVYYCGASFEGYRYNVYCGQGTQVTVSS | low polyreactivity
QVQLLESGGGLVQAGGSLRLSCMASGSILGDRMSWYRQAPGKEHELVATIYDGGITYYADSMKGRFTISRDNAKNTLYLQMNSLRPEDTAVYYCGACFEGYRYHVYCGQGTQVTVSS | low polyreactivity
QVQLLESGGGLVQAGGSLRLSCPPSGFIFPRNVMGWYRQAPGKERELVAAISRSGGSTYYADSVKGRYTISRDNAKNTVYLQLNSQKPEDTAVYYCAAEIPVYQGTGDYDYWGQGTQVTVSS | low polyreactivity
QVQLLESGGGLVQAGGSLRLSFAASGSTSRKYAMGLYRQAPGKERVLVAGITKGGGGTYYADSVKGRFTISRDNAKNTVYLLMNSLKPEDTAVYYCAKYYGSGYYIYDYWGLGTQVTVSS | low polyreactivity
QVQLLESGGGLVQAGGSLRLTCAASGRTFGRYAKGWYRQAPGKERELVADITGGGSTNYADSVKGRFTISRDNAKNTVYLQMKSLKPEDTAVYYCAAGFHKRVTPEILYDYWGQGTQVTVSS | low polyreactivity
QVQLLESGGGLVQAGGSLRLTCAASGSTFRYNAMGWYRQAPGKERELVAAISSGSSTNYADSVKGRFTLSRDNAKNTVYLQMNSLKPEDTAVYYCAAQPGYYDDFYYWGQGTQVTVSS | low polyreactivity
QVQLLESGGGLVQAGRSLRLSCAASGSIFRSYAMGWSRQAPGKERELVAAISRRGGSTYYADSVKGRFTISRDNAKNTVYLQMNSLKPEDTAVYYCAADRTGPYDYWGQGTQVTVSS | high polyreactivity
QVQLLESGGGLVQEGGSLRLSCAASGFIFSKNVMGWYRHAPGKERELVARITRSGGTTYYADSVKGRFTISRDNAKYTVYLQMNSLKPEDTAVYYCAARRYGYTSITWYDYWGQGTQVTVSS | high polyreactivity

Sequence | polyreactivity (PSR sort gate)
QVQLLESGGGLVQEGGSLRLSCAASGSTFHSYAMGWYRQAPGKERELVAGINRTGGSTYYADSVKGRFTISRDNAKNTVYLQMNSLKPEDTAVYYCAAVSYYASVYRYDYWGQGTQVTVSS | low polyreactivity
QVQLLESGGGLVQPGGSLRLSCAASGRTFRLNGMGWNRQAPGKERELVAAITWSGGRTYYADSVKGRFTISRDNAKKTVYVQMNSLTPEDTAVYYCAADFRDGFTSRYGYWGQGTQVTVSS | high polyreactivity
QVQLLESGGGLVQSGGSLRLSCAASGRNFTPYAMGWYRQAPGKERELVAAITGSGGITYYADSVKGRFTISRDNAKNTVYFQMNSLKPVDTAVYYCAKDWWQSDSVGDYTHYEYDYWGQGTQVTVSS | low polyreactivity
QVQLLESGRGLVQAGGSLRLSCAASGRTFVGYAMVWYRKAHGKERELVAGITASGGTTYYADSVKGRFTISRDNAKNTVYLQMNSLKPEDTAVYYCATTTTRYRYKKNYYWGQGIQVTVSS | high polyreactivity
QVQLLESGRGLVQAGGSLRLSCAPSGLTFRYMAMGWYIQAPGKERELVAAINSGGRTNYADSVKGRFTISRDNAKNTVFLQMNSLKPEDTAVYYCAAVRHWTVGWTYYYWGQGTQVTVSS | high polyreactivity
QVQLLESWGGLVHAGGSVRLSCAASGSIFGYNAMGWYRESPGKEREWVAAISWDGGSTYYADSVKGRFTISRDNAKYNVFLQMNSLKPEDTAVYYCAAEGLRFVYEYWGQGTQVTVSS | low polyreactivity
QVQLLESWGGLVQAGGSLRLSCAASGSIFSYYAMGWYRQAPGKERELVATISSGDSTYYADTVKGRFTISRDNAKNTVYLQMHSLNPEDTEVYYCARKPRIRYYPAPYDYWGQGTQVTVSS | low polyreactivity
QVQLLETGGGLVQAGGSLRLSCAASGSIFSRNDMGWYRPAPGKERELVAAITWSGGSTYYADSVKGRFTISRDNAKNTVYLQMNSLKPEDTAVYYCATRYTRVYDCWGQGTLVTVSS | high polyreactivity
QVQLLGSGGGLVQACGSLRLSCSASGSISHYIFMGWYRQAPAKEREFVAGIGYGGTTNYADSVKGRFTISRDNAKNTVYLQMNSLKPEDTAMYYCAAREATAFYLYYCGQGTQVTVSS | low polyreactivity
QVQLQASGVGLVQSGGSLRLSCASRGTNFTARFMGWYRQAPGKERELVATITDGGNTNHADRVKGRFTISRDNAKNTVYLQMNSLKPEDAAVYYCAAGEVDNDTLLYWGQGSQVTVSS | low polyreactivity
QVQLQEGGGGLVQAGGSLRLSCAASGYISYGDVMGWYRQAPGEERELVASIGLDATTNYADSVKGRFTISRDNAKITVYLQMNSLKPEATAVYYCAADVGSGVMCGYWGQGTQMTVSS | high polyreactivity
QVQLQEGGGLVQAGGSLRLSCAASGYISSRPAMGWYRQAPGKERAFVATIADGTSTYYADSVKGRFTISRDNAINTVYLQMNSLKPEDTSVYYWAAAYNTEFDLSYWGQGTQVTVSS | high polyreactivity
QVQLQEGGGLVQAGGSLRLSCAASGYISSRPAMGWYRQAPGLERAFVATIADGTSTDYADSVKGRFTISRDNAKNTVYLQMYRLQPEDTAVNYCAAAYNTQYYLSYWGQGTQVTVRS | high polyreactivity
QVQLQERAAWCRRAGSLRLSCAASGNISDYYFMGWYRQAPGKERELVAAIAPGSNTYYADSVKGRFTISRDNAKNTVYLQMNSLKPEDTAVCFCAADSTQYTWFDYWGQGTQVTVSS | low polyreactivity
QVQLQESAGGLVQAGGSLRLRCSASGYSSCDASMGWYRQAPGKERELAASITKGSSTNYADSVKGRFTIRDNAKNTVYLQMNSLKPEDTAVWYCGVTYPYWGDYTYWGKGTQVTVSS | low polyreactivity
QVQLQESAGVLVQAGGSLRLRCSASGYISCHASMGWYRQAPGKEGELAASITKGSSTNYADSVKGRFTIRDNAINTVFLQMNSLKPEDTAVCYCAVTYPYWGDYTYWGQGTQVTVSS | low polyreactivity
QVQLQESCGGLVQAGGSLRLSCAASGTIITARFMGWYRQAPGKERELVATITDGGNNNHAESVKGRFTISRDNAKNTVYLQMNSLKPEDAAVYYCAAGEVDNDTLLYWGQGSQVTVSS | low polyreactivity
QVQLQESGDGLVQAVGSLRLSCAASGNISGDYYMGWYRQAPGKERELVAGIDAFGSSTNYADCVKGRFTISRDNAKNTVYLQMNRLKPEDTAVYYCAARPDGDRLFSYWGQGTQVTVSS | low polyreactivity
QVQLQESGDGLVQAVGSLRLSCAASGYISGYYYMGWYRQAPGKERELVAGIDAFGSSTNYADCVKGRFTISRDNAKNTVYLQMNSPNPEDTAVYYCAAEFDDWDYHSYWGQGTQVSVSS | low polyreactivity
QVQLQESGDGLVQAVGSLRLSCAASGYISGYYYMGWYRQAPGKERELVAGIDAFGSSTNYADCVKGRFTISRDNAKTTVYLPPNSPKPEDTAVYYCAAEYDDWDYHWYWGQGTQVTVSS | low polyreactivity
